This is an account of results in patent publication US7211241B2, “Cascade polymer complexes, process for their production and pharmaceutical agents containing said complexes” (Schering Aktiengesellschaft, priority 1995, dated 2007).

The conditions of data set [1]: rats; cited from earlier work.
Data set [2] is described as follows: In vivo comparison with an extracellular contrast medium: blood concentrations of Gd and Dy in rats with ligated renal vessels. As to conditions: i.v.; for diffusion in the interstitium: compound 1 and compound 2 compared in the same animals; for time until equilibrium is reached (constant blood level): examination period 15 minutes. The text has this: FIG. 1 is a graph of the measured blood concentrations of Gd (compound 1) and Dy (compound 2) in rats (n=5) with ligated renal vessels, as described in the above Example for an In Vivo Comparison with an Extracellular Contrast Medium.
The suitability of the compound described in Example 1k) as blood-pool-agent is shown in the following test.
As test animals, five male (Schering-SPF) rats that are 300–350 g in weight are used. Before the test, the abdomen is opened, the intestines are shifted and then the renal vessels (arterial+venous) of both sides are ligated through the rear peritoneum with a surgical needle. Then, the abdominal cavity is closed again. 0.3 ml (respectively 50 mmol/L) of the following contrast medium solution per animal is then administered intravenously: mixture of 1 part each of the compound of Example 1k), named compound 1 below, and the dysprosium complex of 10-(1-hydroxymethyl-2,3-dihydroxypropyl)-1,4,7-tris(carboxymethyl)-1,4,7,10-tetraazacyclododecane, produced analogously to the instructions in European Patent Application EP 448 191, named compound 2 below. Blood samples are taken with a catheter in the common carotid artery at the following times: 15, 30, 45, 60, 90 seconds, 3, 5, 10, 15 minutes p.i. In the blood samples obtained, the concentrations of gadolinium (Gd) and dysprosium (Dy) are measured with the aid of atomic emission spectrometry (ICP-AES) in each case in a parallel manner. The portion of the injected contrast medium of compound 1 (Gd) and compound 2 (Dy., comparison substance), remaining in the blood space, can be compared in the same animals by the different marking. Since a renal excretion is not possible, the decrease of the blood concentration can be attributed only to a distribution in the blood spaces and to the diffusion in the interstitial tissue.

A short description of data set [3]: MR angiography on rabbits. The class given is in vivo. As to conditions: i.v. 50 μmol of Gd/kg of body weight, 1.5 tesla. As for the experimental part: The compound cited under Example 1k was studied on rabbits (CH. R. Kisslegg, ≈4 kg of body weight) in an MR angiography experiment (Ganzkörper [whole-Body] MRT System Siemens Vision, 1.5 tesla, FISP 3D; TR: 400 ms; TE 15 ms; flip angle: 45°; coronal).
In a precontrast picture only one to two major vessels are visible (e.g., abdominal aorta) in relatively poor contrast (signal intensity SI of these vessels against the background).

Consider polylysine-GdDTPA, for which the excretion route entry in data set [1] is “excreted unchanged by glomerular filtration through the kidneys”.
`O=C([O-])CN1CCN(CC(=O)[O-])CCN(C(CO)C(O)CO)CCN(CC(=O)[O-])CC1.[Dy+3]` (stereo not drawn) [compound 2, dysprosium complex of 10-(1-hydroxymethyl-2,3-dihydroxypropyl)-1,4,7-tris(carboxymethyl)-1,4,7,10-tetraazacyclododecane, reference compound]: in data set [2], the “diffusion in the interstitium” value is given as “diffuses quickly into the interstitial spaces of the body” and the “time until equilibrium is reached (constant blood level)” value is reported as 3–5 minutes p.i.
Turning to “24-mer-Gd-complex of N-(5-DO3A-yl-4-oxo-3-azahexanoyl)-cascade polyamide based on N,N,N′,N′,N″,N″-hexakis[2-(trilysylamino)-ethyl]-trimesic acid triamide [Example 1k]”, in data set [2], the “behaviour as blood-pool contrast medium” value is “behaves as a blood-pool contrast medium”, the “diffusion in the interstitium” value is given as “considerably slowed-down” and the “time until equilibrium is reached (constant blood level)” value is on record as “no equilibrium is reached”. For the same molecule, in data set [2] (compound 1 versus compound 2, up to 15 minutes p.i.), the blood concentrations result is on record as “constantly higher”. The “blood vessels visible after administration of contrast medium” value in data set [3] was “a wide variety of minor blood vessels and capillaries”. The “contrast (SI of the vessels/SI of the background)” value in data set [3] (versus precontrast picture) is reported as “marked increase”.
